Results reported in patent publication US20040185460.

T1: inactivated MKK4, P45985
T1 chain: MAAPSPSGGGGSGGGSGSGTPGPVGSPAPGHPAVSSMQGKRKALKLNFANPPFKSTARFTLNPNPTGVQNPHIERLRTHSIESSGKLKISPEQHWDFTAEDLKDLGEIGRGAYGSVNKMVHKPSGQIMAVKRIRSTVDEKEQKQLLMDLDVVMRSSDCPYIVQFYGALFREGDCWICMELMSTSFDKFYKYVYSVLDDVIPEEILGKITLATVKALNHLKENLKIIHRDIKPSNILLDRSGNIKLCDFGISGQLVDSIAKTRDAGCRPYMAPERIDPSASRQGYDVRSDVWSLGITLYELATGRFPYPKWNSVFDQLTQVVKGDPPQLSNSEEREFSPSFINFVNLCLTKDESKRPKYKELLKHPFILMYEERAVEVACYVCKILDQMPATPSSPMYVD


Key:
[1] = target: GST-MKK7β1(K149A), O14733
[2] = target: myelin basic protein (UBI #13-104)
[3] = target: GST-MKK4(K113A) [GST: P08515]
inactivated MKK4, P45985 = target: T1, inactivated MKK4, P45985

Row | Protein | phosphorylation of substrate coated on the plate (ELISA-based assay, time-resolved fluorescence) [1] | phosphorylation of myelin basic protein (radioactive counts, Multiscreen TCA in-plate assay) [2] | phosphorylation of substrate coated on the plate (ELISA-based assay, time-resolved fluorescence) [3] | in vitro kinase cascade: phosphorylation/activation of MKK4, read as phosphorylated GST-JNK1β1(K55A) (phospho-specific JNK antibody, fluorescence) (inactivated MKK4, P45985) | phosphorylation of substrate coated on the plate (fluorescence units, ELISA-based assay with phospho-threonine antibody, time-resolved fluorescence) [1] | specific activity, ratio against GST-MLK7KD/LZ (ELISA-based phosphorylation assay) [1] | phosphorylation of substrate coated on the plate (fluorescence units, ELISA-based assay with phospho-threonine antibody, time-resolved fluorescence) [3] | specific activity, ratio against GST-MLK7KD/LZ (ELISA-based phosphorylation assay) [3] | phosphorylation of GST-JNK1β1(K55A) by activated MKK4 (phospho-specific JNK antibody, fluorescence) (GST-JNK1β1(K55A), P45983)
1 | baculoviral GST-MLK3KD (protein) LRLEEVIGIGGFGKVYRGSWRGELVAVKAARQDPDEDISVTAESVRQEARLFAMLAHPNIIALKAVCLEEPNLCLVMEYAAGGPLSRALAGRRVPPHVLVNWAVQIARGMHYLHCEALVPVIHRDLKSNNILLLQPIESDDMEHKTLKITDFGLAREWHKTTQMSAAGTYAWMAPEVIKASTFSKGSDVWSFGVLLWELLTGEVPYRGIDCLAVAYGVAVNKLTLPIPSTCPEPFAQLMADCWAQDPHRRPDFASILQQLEAL | both GST-MLK7 forms were less active than GST-MLK3KD (control enzyme) | Baculoviral GST-MLK3KD was used as the control enzyme in this analysis to show phosphorylation of myelin basic protein by a member of the mixed lineage kinase family | both GST-MLK7 forms were less active than GST-MLK3KD (control enzyme) |  |  |  |  |  | 
2 | baculoviral human GST-MLK7KD (protein) PANYVAPCRPAASPAPPPSRPSSPVHVAFERLELKELIGAGGFGQVYRATWQGQEVAVKAARQDPEQDAAAAAESVRREARLFAMLRHPNIIELRGVCLQQPHLCLVLEFARGGALNRALAAANAAPDPRAPGPRRARRIPPHVLVNWAVQIARGMLYLHEEAFVPILHRDLKSSNILLLEKIEHDDICNKTLKITDFGLAREWHRTTKMSTAGTYAWMAPEVIKSSLFSKGSDIWSYGVLLWELLTGEVPYRGIDGLAVAYGVAVNKLTLPIPSTCPEPFAKLMKECWQQDPHIRPSFALILEQLTAIEGAVMTEMPQESFHS |  | Both GST-MLK7KD and GST-MLK7KD/LZ were able to phosphorylate myelin basic protein |  | both GST-MLK7KD and GST-MLK7KD/LZ were able to phosphorylate MKK4 and as a consequence of this phosphorylation event, MKK4 was activated | both forms of baculoviral GST-MLK7 catalyzed the phosphorylation of the two MKK protein substrates, GST-MKK4(K113A) and GST-MKK7(K149A) | GST-MLK7KD displaying about 2× higher activity than GST-MLK7KD/LZ | both forms of baculoviral GST-MLK7 catalyzed the phosphorylation of the two MKK protein substrates, GST-MKK4(K113A) and GST-MKK7(K149A) | GST-MLK7KD displaying about 2× higher activity than GST-MLK7KD/LZ | 
3 | inactivated MKK4 (protein) MAAPSPSGGGGSGGGSGSGTPGPVGSPAPGHPAVSSMQGKRKALKLNFANPPFKSTARFTLNPNPTGVQNPHIERLRTHSIESSGKLKISPEQHWDFTAEDLKDLGEIGRGAYGSVNKMVHKPSGQIMAVKRIRSTVDEKEQKQLLMDLDVVMRSSDCPYIVQFYGALFREGDCWICMELMSTSFDKFYKYVYSVLDDVIPEEILGKITLATVKALNHLKENLKIIHRDIKPSNILLDRSGNIKLCDFGISGQLVDSIAKTRDAGCRPYMAPERIDPSASRQGYDVRSDVWSLGITLYELATGRFPYPKWNSVFDQLTQVVKGDPPQLSNSEEREFSPSFINFVNLCLTKDESKRPKYKELLKHPFILMYEERAVEVACYVCKILDQMPATPSSPMYVD |  |  |  |  |  |  |  |  | MKK4 was activated and was able to phosphorylate its protein substrate GST-JNK1β1(K55A)
